Laboratory results published in the nanobody polyreactivity screen of Harvey et al. (2022).

Assay: yeast display, Sf9 membrane polyspecificity reagent, FACS + sequencing; frameworks hold sequencing errors
Procedure, shortened: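 Galactose induction of a Saccharomyces cerevisiae BJ5465 synthetic nanobody display library ran 36–48 hours. The cells were then stained for 1 hour at 4 °C with 10% biotinylated, detergent-solubilized Sf9 membrane reagent, pulled down on streptavidin microbeads and FACS-sorted into low and high (top ~1%) gates on expression and reagent-binding fluorescence. Labels for polyreactivity follow the gate of origin.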

Row | Sequence | polyreactivity (PSR sort gate)
1 | QVQLVESGGGLVQAGGSLRLSCAASGRTFGLYDMGWYRQAPGKERELVAGITRRGGRTYYADSVKGRFTISRDNAKNTVYLQMNSLKPEDTAVYYGAAGTLYLRHAQSPFDYWGQGTQVTVSS | high polyreactivity
2 | QVQLVESGGGLVQAGGSLRLSCAASGRTFYYNAMGWYRQAPGKERELVASISWSGTSTYYADSVKGRFTISRDNAKNTVYLQMNSLKPEDTAVYYCATDSYWRQDLYRYEYWGQGTQVTVSS | high polyreactivity
3 | RVHLVESGGGLVQAGGSLRLSCAASGRIFDNYVMGWYRQAPGKESELVAAISSGGGTYYADSVKGRFTISRDNAKNTVYLQMKSLKPEDTAVYFCAKRRVFDRSFGRYDYWGQGTQVTVSS | low polyreactivity
4 | QVQLVESGGGLVQAGGSLRLSCAASGRIFTLYTMGWYRQAPGKERELVARITRSGGTTYYADSVKGRFTISRDNSKNTVYLQMNSLKPEDTAVYYCNVDDYFWPGAKFDYWGQGTQVTVSS | low polyreactivity
5 | QVQLVESGGGLVQAGGSLRLSCAASGYIFYSNDMGWSRQAPGKVRELVAAIDNGGSTTYADSVKGRFTISRDNAKNTVYLQMNSLKPEDTAVYYCATDNPFTSTTYDYWGQGTQVTVSS | low polyreactivity
6 | QVQLVESGGGLVQAGGSLRLSCAASGSTFKEYTMGWYRQAPAKERELVAASSKSGDSTYYADSVKGRFTISRDNAKNTVYLQMNSLKPEDTAVYYCNKPTWYTIYDYWGQGTQVTVSS | low polyreactivity
7 | QVQLVESGGGLVQAGGSLRLSCAASGRIFPRYGMGWYRQAPGKERELVADITSSGSTYADSVKGRFTISRDNAKNTVYLQMNSLKPEDTAVYYCNALYRRLSYSWRYRQLYDYWGQGTQVTVSS | high polyreactivity
8 | QVQLVESGGGLDQAGGSLRLSCAASGRTFGRYAMGWYRKAPGTERELVAAISWSGGSTYYADSVKGRFTISRDNAKNTVYLQMNSLKPEDTAVYYCAAYEHVYEYDYWGQGTQVTVSS | low polyreactivity
9 | QVQLVESGGGLVQAGGSLRLSCAASGSTFGSYAMGWYRQAPGKERELVAAIRRGGSTTYADSVKGRFTISRDNAKNTVYLQMYSLKPEDTAVYYCAAPELNEGLPLDYWGQGTQVTVSS | low polyreactivity
10 | QVQHVESGGGLVQAGGSLRLSCAASGRIFYSNTMGWYRQAPGKERELVAAITWRGGRTHYADSVKGRFTISRDNAKNTVYLQMNSLKPEDTAVYYCAARYIPIQYPSYRTWGGYSWGQGTQVTVSS | high polyreactivity
11 | QVQLVESGGVLVQAGGSLRLSCAASGSTFYPNAMGWYRQAPGQEREFVAAISDGGSTTYADSVKGRFTISRDNAKNTVYLQMNSLKPEDTAVYYCNARVGSYTPSWYYQEFDYWGQGTQVTVSS | low polyreactivity
12 | QVQLVESGGGLVQAGGSLRLSCAASGLIFLEYAMGWYRQAPGKEREMVAAISTSGGSTYYADSVKGRFTISRDNAKNTVYLQLNSLTPEDTAVYYCAADPVYNYYFDDGDYWGQGTQVTVSS | low polyreactivity
13 | QVQLVESGGGLVQAGGSLRLSCAASGSIFYAYTMGWYRQAPGKERELVARITQSDDGTYYADSVKGRFTISRDNAKNTVYLQMNSLKPEDTAVYYCAVVFWQLAHRYDYWGQGTQVTVSS | low polyreactivity
14 | QVQLVESGGGLVQAGGSLRLSCHASGFIFGYKAMGWYRQAPGKERELVAAISSGGSTYYADSVKGRFTISRDNAKYTVYLQMKSLKPEDTAVFYCATVFVVLPPTRFDSWGQGTQVTVSS | low polyreactivity
15 | QVQLVESGGGLVQAGGSLRLSCAASGSIFVGNAMGWYRQAPGKERELVSTISRGARTKYADSVKGRFTISRDNAKNTVYLQMNSLKPEDTAVYYCNKVSSYYVFYTPYYSWGQGTQVTVSS | low polyreactivity
16 | QVQLVDSGGGLVQAGGSLRLSCAASGRTFGAYAMGWYRQAPGKERELVATITVSGGSTYYADSVKGRFTISRDNAKNTVYLQMNSLKPEDSAVYYCAAAYDWWQFYSWTIAYDYWGQGTQVTVSS | low polyreactivity
17 | QVQLVESGGGLVQAGGSLRLSCAASGSTFSKYAMGWYRQAPGKERELVATISSTGSTNYADSVKGRFTISRDNAKNTVYLQMNSLKPEDTAVSYCNAGRRGRPYYKYYYWGQGTQVTVSS | high polyreactivity
18 | QVQLVETGGGLVQAGGSLHLSCAASGIIIYANDMGWYRQAPGKERELVAGISRNGGRTYYADSVKGRFTISRDNAKNTVYLQMNSLKPEDTAVYYCAARGSYTSIFDYWGQGTQVTVSS | high polyreactivity
19 | QVQLVESGGGLVQAGCSLRLSCAASGSIFGYNAMGWYRQAPGKERELVAAITGSGGSTYYADSVKGRFTISRDNAKNTVYLQMNSLKPEDTAVYYCADDLFGGPLGYWDYDYWGQGTQVTVSS | low polyreactivity
20 | QVQLVESGGGLVQAGGSLRLSCAASGITFYTYAMGWYRQAPGKERELVAAITGTGTSTYYADSVKGRFTISRDNAKNTVYLQMNSLKPEDTAVYYCAAYKRGLPVKRDSWGQGTQVTVSS | high polyreactivity
21 | QVQLVESGGGLVQAGGSLRLSCAASGTFSNYAMGWYRQAPGKERELVAGISKRGGSTYYADSVKGRFTISRDNAKNTVYLQMNSLKPEDTAVYYCRVYAYDYWGQGTQVTVSS | low polyreactivity
22 | QVQLVESGGGLVQAGGSLRLSCSASGRIFPWNTMGWYRQAPGKERELVAGITSGGSTNYADSVKGRFTISRDNAKNTVYLQMNSLKPEDTAVYYCAARGYYWYISGVYEYEYWGQGTQVTVSS | low polyreactivity

Row | Sequence | polyreactivity (PSR sort gate)
23 | QVQLVESGGGLVQAGGSLRLSCAASVYIFVPYTLGWYRQAPGKERELVAAITRSGGSTYYADSVKGRFTISRDNAKNTVSLQMNSLKPEDTAVYYCATVGGPRWVRAQYDYWGQGTQVTVSS | high polyreactivity
24 | QVQLVESGGGLVQAGGSLRLSCAASGLTFPLYVMGWYRQAPGKARELVATITGGGSTTYADSVKGRFTISRDNAKNTVYFQMNSLKPEDTAVYYCAADFVFVATPLRYDYWGPGTQVTVSS | low polyreactivity
25 | QVQLVESGGGLVQAGGSLRLSCAASGFISAYNAMGWYRPAPGKERELVAAITSGATTKYADSVKGRFTISRDNAKNTVYFQMHSLKPEDTAVYYCAAAPKRRYYVHSGGAYGYWGQGTQVTVSS | high polyreactivity
26 | QVQIVESGGGLVQAGGSLRLSCAASGFIFDNNAMGWSRQAPWKESELFATITSGGRTNYADSVKGRFTISRDNAKNTVYLRMNCLKPEDTAVYYCAAFYYLCSRRKTRDYWGQGTQVTVSS | low polyreactivity
27 | QVQLVESGGGLVQAGGSLRISSAASALIIYDNMGRYRQAPGKERELVAAISSSGGSTSYADSVKGRFTFSRDNANNTVYLQMNSLKPEDTAVYYSAADSYPAYLGFVGFDYWGQGTQVTVSS | low polyreactivity
28 | QVQLVESGGGLVQAGGSLRLSCAASGSTFGPYAMAWYRQAPGKERELVAAIDKSGGSTYYADSVKGRFTLSRDNAKNTVYLQMNSLKPEDTAVYYCAADLVRYFGYYDYDSWGQGTQVTVSS | low polyreactivity
29 | LVQLVESGGGLVQAGGSLRLSCAASGRTFRLNALGWYRPAPGNERELVARITGSSGGSTYSADSVKGRFTISRDNAKNTVYLQMNSLKPEDTAVYYCAARYTPRGKRYDYWGQGTQVTGSS | high polyreactivity
30 | QVQLVESGRALVQAGGSLRLSCAASGNTFEDYAMGWYRQAPGKERELVAAINSGGSTNYADSVKGRFTISRDNAKNTVYLQLNSLKPEDTAVYYCAAEPGEGFDYWGQGTQVTVSS | low polyreactivity
31 | QVQLVESGGGLVQAGGSLRLSCAASGLTFTSYAMGWYRQAPGKERELVAAIDWSGGRTYYADSVKGRFTISRDNAKNTVYLQMNSLKPEDTAVYYCYKYRYQWPYRRFDYWGQGTQVTVSS | high polyreactivity
32 | QVQLVESGGGLVQAGGSLRLSCAASGFIFVINAMGWYRQAPGKERELVAGISSGGRTNYADSVKGRFTISRDNAKNTVYLEMKSLKPEDTAVYYCAAAPTYKWRRKNYDYWGQGTQVTVSS | high polyreactivity
33 | QVQLVESGGGLVQAGGSLRLSCAASGRTFNSNAMGWYRQAPGKERELVAAITRSGGSTYYADSVKGRFTISRDNAKNTVYLQMNSLKPEDTAVYYCNKTRWTQRTSFDYWGQGTQVTVSS | low polyreactivity
34 | QVQLVESGGGLVQAGGSLRLSCAASGSIFGFYAMGWYRQAPWKERELVAAINSNSGSTYYADSVKGRFTISRDNAKNTVYLQMNSLKPEDTAVYYCAARSPYVTPQGFNYCGQGTQVTVSS | high polyreactivity
35 | QGQLVESGGGLVQAGGSLRLSCAASGGTFSDNVMGWYRQAPGKERELVAANSRSGGSTYYADSVKGRNTISRDNAKNTLSLQMNSLKPEDTAVYYCNAIGSKRGAYKAAFNYWGQGTQVTVSS | high polyreactivity
36 | QVQLVESGGGLVQAGGSLRLSCAASGFIFDVNAMGWYRQAPGKETELVAAISKSGRRTYYADSVKGRFTISRDNAKNTVYLQMNSLKPEDTAVYYCAASLRASPSFGYWGQGTQVTVSS | high polyreactivity
37 | QVQLVESGGGLVQAGGSLRLSCAASGRTFSVYALGWYRPAPGKERELVAGITSGGSTNYADSVKGRFTMSRDNAKNTVYLQMNILKPEDTADYSCASENVYAVFLFVSIGDYWGQGTQETVSS | low polyreactivity
38 | QVQLEESGGGLVHAGGSLPLSCAASGGTFYKYAMGSYRQAPGKERELVARISRCGSTYYADSVNGRFTISRDNAKNTVYLQMNSLKPEDTAVYYCAKRWFAGWPIVVPYNYWGQGTQVTVSS | high polyreactivity
39 | QVQLVESGGGLVQAGGSLRFSCAASGFTFPYYAMGWYRQAPGKERELVAAITGRGGSSYYADSVKGRFTISRDNAKNTVYLQMNSLKPEDTAVYYCAARRSSRSKRLNYWGQGTQVTVSS | high polyreactivity
40 | QVQLVESGGGLVQAGGSLRLSCAASGLTIRYNAMGWYRQAPGKERELVARISRNGGRTYYADSVKGRFTISRDNAKNTVYLQMKSLKPEDTAVNYCNVVYFVTTSPGYDYWGQGTQVTVSS | high polyreactivity
41 | QVQLVESGGGLVQAGGSLRLSCAASGLTFGTNAMGWYRQAPGKERELVAAISTSSGSTYYADSVKGRFTISRDNAKNTVYLQMNSLKPEDTAGYYCAAVTVTKLSYYRYYYWGQGTQVTVSS | low polyreactivity
42 | QVQLVESGGGLDQAGGSLRLSCAASGIIFRWYAMGWYRQAPGKERELVAAITASGGSTYYADSVKGRFTISRDNAKNTVYLQMNSLKPEDTAVYYCNKLRLANIQTDGYYYWGQGTQVTVSS | high polyreactivity
43 | QVQLVESGGGLVQAGGSLRLSCAASGRTFGAYAMGCYRQAPGKERELVAAISIGGRTYYADSVKGRFTISRDKAKNTVYLQMNILKPEDTAVYYCNKVRSPWYDSWGQGTQVTVSS | high polyreactivity
